What all share (assay): library pulldown, LC-MS of supernatant; ratio vs GFP-Nb control (0=captured, 1=not captured)
One experiment addresses T1, BC2T P1M (human).
T1 construct: position 1 library, row M
T1 peptide: Ac-MDRKAAVSHWQQ-NH2
The text has this:
(§1) In total, 12 different BC2T libraries displaying all 20 proteinogenic amino acids in one single position of the peptide were used in immunoprecipitation experiments. […] The direct comparison with the GFP-Nb made it possible to determine the quantitative degree of peptide capture without the need of labeled standards. […] The more peptide was captured the more the value approximates 0. It was not possible to discriminate between isoleucine (I) and leucine (L) peptide versions since these peptides are isobaric.
(§2) To investigate the binding specificity of the BC2T and derived mutants peptide libraries for each amino acid position of the sequence […] (SEQ ID NO:4) were synthesized with acetyl and amide groups located at the N-termini or C-termini respectively (Intavis). […] Incubations were performed in 300 μl PBS/0.01% CHAPS for 1 h on a HulaMixer (Life Technologies). Subsequent to a centrifugation step 10 μl supernatant were analyzed in a LC-MS procedure. Peptides were separated using an UltiMate3000 RSLCnano System (Thermo Scientific), composed of a C18 PepMap100μ-Precolumn (300 μm×5 mm; particle size: 5 μm; pore size: 100 Å—Thermo Scientific) and a C18 analytical column (Acclaim Rapid Separation LC (RSLC) Column: 150 mm×5 mm; particle size: 2.2 μm; pore size: 100 Å—Thermo Scientific). A step gradient was applied starting at 8% and ending after 20 min at 30% eluent B (80% acetonitrile, 20% H₂O, 0.1% formic acid).

The target in the next experiment is T2, BC2T A6M (human).
T2 construct: position 6 library (BC2TA6X), row M
T2 peptide: Ac-PDRKAMVSHWQQ-NH2
From the text: as §1, §2

A further experiment has as its target T3, BC2T A6F (human).
T3 construct: position 6 library (BC2TA6X), row F
T3 peptide: Ac-PDRKAFVSHWQQ-NH2
From the text: as §1, §2

A further experiment concerns the target T4, BC2T A6E (human).
T4 construct: position 6 library (BC2TA6X), row E
T4 peptide: Ac-PDRKAEVSHWQQ-NH2
From the text: as §1, §2

A further experiment concerns the target T5, BC2T V7(I/L1).
T5 construct: position 7 library, row I/L1
From the text: as §1, §2

For another experiment, the target named is T6, BC2T P1H (human).
T6 construct: position 1 library, row H
T6 peptide: Ac-HDRKAAVSHWQQ-NH2
From the text: as §1, §2

In another experiment the target is T7, BC2T D2V (human).
T7 construct: position 2 library, row V
T7 peptide: Ac-PVRKAAVSHWQQ-NH2
From the text: as §1, §2

In the next experiment the target is T8, BC2T D2(I/L1).
T8 construct: position 2 library, row I/L1
From the text: as §1, §2

For a further experiment, the target named is T9, BC2T R3A (human).
T9 construct: position 3 library (BC2TR3X), row A
T9 peptide: Ac-PDAKAAVSHWQQ-NH2
From the text: as §1, §2

In another experiment the target is T10, BC2T R3V (human).
T10 construct: position 3 library (BC2TR3X), row V
T10 peptide: Ac-PDVKAAVSHWQQ-NH2
From the text: as §1, §2

The next experiment has as its target T11, BC2T R3(I/L1).
T11 construct: position 3 library (BC2TR3X), row I/L1
From the text: as §1, §2

A further experiment addresses T12, BC2T R3(I/L2).
T12 construct: position 3 library (BC2TR3X), row I/L2
From the text: as §1, §2

The next experiment has as its target T13, BC2T K4A (human).
T13 construct: position 4 library, row A
T13 peptide: Ac-PDRAAAVSHWQQ-NH2
From the text: as §1, §2

A further experiment addresses T14, BC2T K4(I/L1).
T14 construct: position 4 library, row I/L1
From the text: as §1, §2

The target in another experiment is T15, BC2T K4F (human).
T15 construct: position 4 library, row F
T15 peptide: Ac-PDRFAAVSHWQQ-NH2
From the text: as §1, §2

A further experiment addresses T16, BC2T P1(I/L1).
T16 construct: position 1 library, row I/L1
From the text: as §1, §2

Another experiment has as its target T17, BC2T A5V (human).
T17 construct: position 5 library, row V
T17 peptide: Ac-PDRKVAVSHWQQ-NH2
From the text: as §1, §2

Another experiment has as its target T18, BC2T A5(I/L1).
T18 construct: position 5 library, row I/L1
From the text: as §1, §2

The next experiment addresses T19, BC2T A5(I/L2).
T19 construct: position 5 library, row I/L2
From the text: as §1, §2

The next experiment deals with T20, BC2T A5F (human).
T20 construct: position 5 library, row F
T20 peptide: Ac-PDRKFAVSHWQQ-NH2
From the text: as §1, §2

For another experiment, the target named is T21, BC2T P1(I/L2).
T21 construct: position 1 library, row I/L2
From the text: as §1, §2

In a further experiment the target is T22, BC2T A5N (human).
T22 construct: position 5 library, row N
T22 peptide: Ac-PDRKNAVSHWQQ-NH2
From the text: as §1, §2

The target in a further experiment is T23, BC2T A5R (human).
T23 construct: position 5 library, row R
T23 peptide: Ac-PDRKRAVSHWQQ-NH2
From the text: as §1, §2

B1: BC2 nanobody (BC2-Nb) (VHH)
VHH: QVQLVESGGGLVQPGGSLTLSCTASGFTLDHYDIGWFRQAPGKEREGVSCINNSDDDTYYADSVKGRFTIFMDNAKDTVYLQMNSLKPEDTAIYYCAEARGCKRGRYEYDFWGQGTQVTVSS
notes: immobilised on agarose/sepharose beads in this assay; also called BC2 nanotrap (immobilised form); not shown: C-terminal 6xHis-tag added by pHEN6 vector
On to B1, for which the ratio with BC2T P1M stood at 0.2; in the experiment with BC2T A6M, 1; with BC2T A6F it was 1; with BC2T A6E, 1.1; in the experiment with BC2T V7(I/L1), 0.1; with BC2T P1H, 0.3. Besides, the ratio in the experiment with BC2T D2V amounted to 0.1; with BC2T D2(I/L1), 0.1; in the experiment with BC2T R3A, 0.7; with BC2T R3V it was 0.3; with BC2T R3(I/L1) it was 0.5; in the experiment with BC2T R3(I/L2) it was 0.5. The ratio was 0.2 in the experiment with BC2T K4A; 0.1 with BC2T K4(I/L1); 0.3 with BC2T K4F; 0.4 in the experiment with BC2T P1(I/L1); 0.1 with BC2T A5V; 0.1 with BC2T A5(I/L1). The ratio with BC2T A5(I/L2) came to 0.1; with BC2T A5F, 0.1; in the experiment with BC2T P1(I/L2), 0.3; with BC2T A5N, 0.3; with BC2T A5R, 0.2.

B2: BC2-NbR106E (VHH)
VHH: QVQLVESGGGLVQPGGSLTLSCTASGFTLDHYDIGWFRQAPGKEREGVSCINNSDDDTYYADSVKGRFTIFMDNAKDTVYLQMNSLKPEDTAIYYCAEARGCKRGEYEYDFWGQGTQVTVSS
notes: immobilised on beads in this assay; not shown: C-terminal 6xHis-tag added by pHEN6 vector
Regarding B2, the ratio with BC2T P1M turned out to be 0.4; in the experiment with BC2T A6M, 1; with BC2T V7(I/L1), 0.1; with BC2T D2V it was 0.1; with BC2T D2(I/L1), 0.1; in the experiment with BC2T R3A, 1. In addition, the ratio with BC2T R3V was found to be 0.5; with BC2T R3(I/L1), 0.9; with BC2T R3(I/L2), 0.9; with BC2T K4A, 0.4; with BC2T K4(I/L1), 0.3; with BC2T P1(I/L1), 0.6. The ratio with BC2T A5V turned out to be 0.1; in the experiment with BC2T A5(I/L1), 0.1; with BC2T A5(I/L2) it was 0.1; with BC2T P1(I/L2), 0.5.

B3: BC2-NbR106S (VHH)
VHH: QVQLVESGGGLVQPGGSLTLSCTASGFTLDHYDIGWFRQAPGKEREGVSCINNSDDDTYYADSVKGRFTIFMDNAKDTVYLQMNSLKPEDTAIYYCAEARGCKRGSYEYDFWGQGTQVTVSS
notes: as for B2
For the molecule B3, the ratio with BC2T P1M came to 0.5; in the experiment with BC2T A6M it was 0.9; with BC2T A6F it was 0.9; in the experiment with BC2T A6E, 1; with BC2T V7(I/L1), 0.3; in the experiment with BC2T P1H, 0.6. Further, the ratio was 0.2 with BC2T D2V; 0.2 with BC2T D2(I/L1); 0.9 in the experiment with BC2T R3A; 0.7 with BC2T R3V; 0.9 with BC2T R3(I/L1); 0.9 with BC2T R3(I/L2). In addition, the ratio in the experiment with BC2T K4A was 0.6; with BC2T K4(I/L1) it was 0.4; with BC2T K4F it was 0.7; in the experiment with BC2T P1(I/L1) it was 0.7; with BC2T A5V it was 0.2; with BC2T A5(I/L1), 0.2. For the same molecule, the ratio in the experiment with BC2T A5(I/L2) came out at 0.2; in the experiment with BC2T A5F, 0.2; with BC2T P1(I/L2), 0.6; in the experiment with BC2T A5N, 0.5; in the experiment with BC2T A5R, 0.1.

The values above are taken from patent US20170137467A1 (CHROMOTEK, published 2017).
